Results: IntAct's records for PubMed 15448699

B1: Protein SIC1 (Saccharomyces cerevisiae), P38634 (parent)
chain: MTPSTPPRSRGTRYLAQPSGNTSSSALMQGQKTPQKPSQNLVPVTPSTTKSFKNAPLLAPPNSNMGMTSPFNGLTSPQRSPFPKSSVKRTLFQFESHDNGTVREEQEPLGRVNRILFPTQQNVDIDAAEEEEEGEVLLPPSRPTSARQLHLSLERDEFDQTHRKKIIKDVPGTPSDKVITFELAKNWNNNSPKNDARSQESEDEEDIIINPVRVGKNPFASDELVTQEIRNERKRAMLRENPDIEDVITYVNKKGEVVEKRRLTDEEKRRFKPKALFQSRDQEH
partner: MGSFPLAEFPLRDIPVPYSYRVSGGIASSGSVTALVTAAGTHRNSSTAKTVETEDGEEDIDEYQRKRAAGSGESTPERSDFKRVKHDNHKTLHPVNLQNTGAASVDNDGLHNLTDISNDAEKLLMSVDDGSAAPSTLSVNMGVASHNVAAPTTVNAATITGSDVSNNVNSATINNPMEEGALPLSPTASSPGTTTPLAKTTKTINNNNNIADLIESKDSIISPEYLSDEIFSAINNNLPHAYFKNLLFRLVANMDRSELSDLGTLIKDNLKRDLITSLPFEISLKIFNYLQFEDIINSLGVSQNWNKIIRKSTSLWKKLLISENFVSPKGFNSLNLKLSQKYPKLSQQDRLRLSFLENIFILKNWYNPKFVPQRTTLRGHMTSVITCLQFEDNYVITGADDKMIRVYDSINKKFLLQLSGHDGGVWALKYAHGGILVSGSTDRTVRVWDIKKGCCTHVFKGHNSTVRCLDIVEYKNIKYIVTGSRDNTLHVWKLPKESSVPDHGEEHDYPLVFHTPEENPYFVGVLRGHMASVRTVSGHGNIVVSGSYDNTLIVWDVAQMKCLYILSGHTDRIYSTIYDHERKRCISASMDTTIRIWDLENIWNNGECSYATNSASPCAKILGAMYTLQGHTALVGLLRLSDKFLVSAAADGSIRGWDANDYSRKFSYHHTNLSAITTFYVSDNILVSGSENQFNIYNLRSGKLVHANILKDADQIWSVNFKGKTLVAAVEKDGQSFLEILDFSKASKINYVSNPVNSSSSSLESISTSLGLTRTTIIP
B2: Protein SIC1 (Saccharomyces cerevisiae), P38634 (parent)
chain: B1 chain
partner: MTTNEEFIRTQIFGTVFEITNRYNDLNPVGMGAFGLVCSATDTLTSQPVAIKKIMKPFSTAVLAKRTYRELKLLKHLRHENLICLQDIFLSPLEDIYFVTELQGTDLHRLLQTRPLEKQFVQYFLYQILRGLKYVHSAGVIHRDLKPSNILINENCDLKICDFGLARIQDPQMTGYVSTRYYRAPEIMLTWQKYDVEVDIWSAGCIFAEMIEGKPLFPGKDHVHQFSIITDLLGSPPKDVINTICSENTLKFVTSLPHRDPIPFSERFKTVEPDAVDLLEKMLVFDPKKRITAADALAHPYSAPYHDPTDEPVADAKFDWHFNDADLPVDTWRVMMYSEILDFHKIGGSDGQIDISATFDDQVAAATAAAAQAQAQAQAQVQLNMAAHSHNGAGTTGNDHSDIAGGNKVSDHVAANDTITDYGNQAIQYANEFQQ

Variants of: B1
Conditions: with cdc4_yeast CDC4, P07834

effect of a mutation on the interaction	Variant
decreasing interaction	T173E

Variants of: B2
Conditions: with hog1_yeast HOG1, P32485

effect of a mutation on the interaction	Variant
disrupting interaction	T173E
